Reference: patent publication CN116715774A (WUHAN ABCLONAL INC, dated 2023)

T1: 重组人AXL蛋白 (recombinant human AXL protein) (human, UniProt P30530 26-449, limits assumed)
T1 construct: also called 重组人AXL截短蛋白; 人受体酪氨酸激酶AXL
T1 sequence (looked up): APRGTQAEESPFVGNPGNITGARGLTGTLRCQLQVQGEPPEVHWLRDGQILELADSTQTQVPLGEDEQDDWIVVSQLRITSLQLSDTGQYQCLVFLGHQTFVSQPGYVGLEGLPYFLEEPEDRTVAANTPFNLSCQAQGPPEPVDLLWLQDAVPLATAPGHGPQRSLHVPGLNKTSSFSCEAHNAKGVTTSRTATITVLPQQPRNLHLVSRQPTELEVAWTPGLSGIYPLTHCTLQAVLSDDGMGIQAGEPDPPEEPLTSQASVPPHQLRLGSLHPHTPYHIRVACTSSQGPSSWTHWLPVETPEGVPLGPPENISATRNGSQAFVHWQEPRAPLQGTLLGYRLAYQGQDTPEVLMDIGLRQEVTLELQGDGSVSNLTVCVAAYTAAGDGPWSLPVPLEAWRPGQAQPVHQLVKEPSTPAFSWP


Target: T1, 重组人AXL蛋白 (recombinant human AXL protein)
Experiment: BLI (Gator biomolecular interaction analyser), antibody against recombinant human AXL

Binder	Kd [nM]	koff [s⁻¹]	kon [M⁻¹ s⁻¹]
兔单克隆抗体B (rabbit monoclonal antibody B against human AXL) (antibody, V domains shown, also called 抗人AXL兔单克隆抗体B) VH: QEQLKESGGGLVQPGGSLKLSCKASGFSLSYYGVNWVRQAPGKGLEWIACIDPVFGATYYASWVNDRFTISSHNAQNTLYLQLSSLTPADTATYFCARGRYYRYGYTYATGMDIWGPGTLVTVSS VL: AIDMTQTPSSVSAAVGDTVTINCQASEDIYSFLAWYQQKPGHSPKLLIYDASKLASGVSSRFKGSGSGTQFTLTISGVQCDDAATYYCQQTYSVSNADTAFGGGTEVVVKG	1.14	0.000387	341000
兔单克隆抗体A (rabbit monoclonal antibody A against human AXL) (antibody, V domains shown, also called 抗人AXL兔单克隆抗体A) VH: QSVEESGGRLVTPGTPLTLTCTVSGIDLSTYAMIWVRQAPGEGLEWIGTIYTDGATAYARWAKGRFTISKTSTTVDLKMTSLTTEDTATYFCARGFGISKFVFSLWGPGTLVTVSL VL: DIVMTQTPASVEAAVGDTVTIKCQASQNIYSNLAWYQQKPGQPPKLLIYFASNLPSGVPSRFKGSGSGTEYTLTISGVQCDDAATYYCQNYYINEIVFGGGTEVVVKG	0.555	0.000132	237000
